Results as given in the nanobody polyreactivity screen of Harvey et al. (2022).

assay: yeast display, Sf9 membrane polyspecificity reagent, FACS + sequencing; frameworks hold sequencing errors
In short: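 After 36–48 hours of galactose induction, yeast (Saccharomyces cerevisiae BJ5465) displaying a synthetic nanobody library were stained at 4 °C for 1 hour with 10% biotinylated, detergent-solubilized Sf9 membrane reagent. Streptavidin microbeads enriched the stained cells before FACS sorting into low and high (top ~1%) gates on anti-HA and streptavidin fluorescence. Each clone's polyreactivity label reflects its gate of origin.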

Row | Sequence | polyreactivity (PSR sort gate)
1 | QVQLVESGGGLVQAGGSLRLSCDASGRTFWRYAMGWYRQAPGKERELVATISSGGSTNYADSVKGRFTISRDNAKNTVYLQMNSLKPEDTAVYYCNAEYSYYDLLAYDYWGQGTQVTVSS | low polyreactivity
2 | QVQLVESGGGLLQAGGRLRLSCAASVSIFTRYDMGWYRQAPGKEREFVAAISRGGGSTYYADSVKVRFTISLDNAKNTVYLQMISLKPENTAVYYCAPGVARYVKTASDYWGHGTQVTVSS | high polyreactivity
3 | QVQLVESGGGLVQAGGSLRLSCAASGSIFVYYVMGWYRQAPGKERELVAAISSGGRTYYADSVKGRFTISRDNAKNTVYLQMNSLKPEDTAVYYCAARPIRPASEVNYWGQGTQVTVSS | low polyreactivity
4 | QVQLVESGGGLVQAGGSLRLSCAASGSIFQIYAMGWYRQAPGKESELVATINRGDNTYYADSVKGRFTISRDNAKNTVYLQMHSLTPEDSAVYYCNVDRQVITGRYIGDYWGQGTLVTVSS | low polyreactivity
5 | QVQLVESGGGLVQAGGSLRLSCAASGSSFTYYTMGWYRQAPAKERELVAAISWSGGRTYYADSVTGRFTISRDNAKNTVYLQMNSLKPEDTAVYYCAAGPAPGHDSWGQGTQVTESS | high polyreactivity
6 | QVHLVESGGGLVQAGGSLRLSCAASGLIFTTNAMGWYRQAPGKERDFVAAISPSGGSTYYADSVKGRFTISRDNSKNTVYLQMNSLKPEDTAVYYCAARYSTVWHKYYYWGQGTQVTVSS | high polyreactivity
7 | QVQLLESGGGLVQAGVSLRLSCSASGFTFGRYAMGCYRQAHGKERELVAGITWSGGSTSYADSVKGRFTISRDNAKNTVYLQMNSLKPEDTAVYYCATRARYTRVHGRRYAYDYWGQGTQVTVSS | high polyreactivity
8 | QVQLVESGGGLVQAGGSLRLSCAASGRTFTFYAMGWYRQAPGKERELVAAIRRGGSTIYADSVKGRFTISRDNAKNTVYLQMNSLKPEDTAVYYCNKRVWYPYWTLDYWGQGTQVTVSS | low polyreactivity
9 | QVQLVESGGGLVHAGGSLRLSCAASGRIFVRYAMGWYRQAPGKERELVAAINWRGSSTYYADSVKGRFTISRDNAKNTVYLQMNSLKPEDTAVYYCNTAQRYRVYRYDYWGQGTQVTVSS | high polyreactivity
10 | QVQHVESGGGLVQAGGSLRLTCAASARIFRYYPMGRYRPAPGKERELVAGITTGGGSTYYADSVKGRFTISRENAKNTVYLQMNSLKPEDTAVFYCAARYYTTYYWGQGTQVTVSS | high polyreactivity
11 | QVQLVESGGGLVQAGGSLRLSCAASGYTFTGYAMGWYRQAPGKERELVAAITSIGGSTYYADSVKGRFTISRDNAKTTVYLQMNSLKPEDTAVYYCAKDALVIDGGGGYDYWGQGTQVTVSS | low polyreactivity
12 | QVQLVESGGGLVQAGGSLRLSCAASGRTFRYNDRGWYRQAPGKERELVASISRISGSTYYADSVKGRFTISRDNAKNTVYLQMNSLKAEVTAVFYCAATVKLKQYPYFGFGYWGQGTQVTVSS | high polyreactivity
13 | QVQLVESGGGLLQAGGSLRLSCAASGGTFTWYAMGWYRQAPGKERELVAAISSDGSTYYADSVKGRFTISRDNAKNTVYLQMNSLKPEDTAVYYCAAYSSWGGFDYWGQGTQVTVSS | low polyreactivity
14 | QVQLVESGGGLVQAGGSLRLSCAASGRTFRLYAMGWYRQAPGKERELVASISRSVGSTYYADSVKGRFTISRDNAKNTVYLQMNSLKPVDTAVYYCAARSYIPGGWYGAYYYWGQGTQVTVSS | high polyreactivity
15 | QVQLVESGGGLVQAGGSLRLSCAASGRTFGIYAMGWYRQATGKERELVAGITWTGGSTYYADSVKGRFTISRDNAKNTVYLQMNSLKPEDTAVYYCAADFYVLQFYGLDYGYWGQGTQVTVSS | low polyreactivity
16 | QVQLVESGGGLDQAGGSLRLSCAASGSTFRFNAMGWYRQAPGKEREFVAAIRFTGGSSYYSDSVKGRFTISRDNAKNTVYLQMNSLKPDDTAVYYCNNADEYSTVEYDYWGQGTLVTVSS | low polyreactivity
17 | QGQLVESGGGLVQAGGSLRLSCAPTGRTFAHYARGWYRQAHWTERELVAGITRRAGSTYYADSVKGRFTISRDNAKHSVYLHMNSLKPEETEVYYCAAPRDWDAGDYWGQGTQVTVSS | high polyreactivity
18 | QVQLVESGGGLVQAGGSLRLSCAASGSTFGYYTMGWYRQAPGKERELVAAITKSGGGTYYADSVKGRFTISRDNAKNTVYLQMNSLKPEDTAVYYCNALYDYYDPYGSWGQGTQVTVSS | high polyreactivity
19 | QVQLVESGGGLVQAGGSLRLSCAASGRTFTPYAMGWYRQAPGKERELVAAISIGGPTNYADSVKGRFTISRDNAKNTVYLQMNSLKPEDTADYYCAADSYYLGRDGFGFYAYTYDYWGQGTEVTVSS | low polyreactivity
20 | QVQLVESGGGLVQAGGSLRLSCAASGRIFDYNSMGWSRPAPGKDRELVASITQRGDIPYYADSVKGRFTSSRDNAKNTVFLQMNSLNPDETAVYYGNADGVLVWVLPYVLYTGDYWGQGTQVTVSS | low polyreactivity
21 | QVQLVESGGGLVQAGGSLRLSCAASGNIFGVNAMGWYRQAPGKERELVAAITCSDSSTNYADSVKGRFTISRDNAKNTVYLQMNSLKPEDTAVYYCATRVWRSAQSRWYGYDYWGQGTQVTVSS | high polyreactivity

Row | Sequence | polyreactivity (PSR sort gate)
22 | QVQLVESGGGLVQEGGSLRLSCAASGFIFKHYAMGWYRQAPGKEMELVAAISGGGSTNYADSVKGRFTISRDNAKNTVYLQMNSLKPEDSAVYYCAARSRSLGYGYWGQGTHVTVSS | low polyreactivity
23 | QVQLVESWGGLVQAGGSLRLSCAASGFIFSSYGMGWYRQAPGKERELVADISGGGSTNYADSVKGRFTISRDNAKNTVYLQMISLNPEDTAVYYCNAQLIRSAAYDYWGQGTQVTVSS | low polyreactivity
24 | QVQLVESGGGLVQAGGSLRLSCAASGGIISTNAMGWYRQAPGKERDLVAAISRRGGSTYYADSVKGRFTISRDYAKNSVYLQMNCLKPEDTAVYYCNKYLRLFSYGRGYDYWGQGTQVTVSS | high polyreactivity
25 | QVQLVDSGGGLFQAGGSHRLSFAASGSILRSNAMGWYRQAPGKERELVAVINGSGGRTYYADSVKGRFTISRDNAKNTVYLQMNSLKPEDTAVYYCNADPGGRYPRRGYAHEGDYWGQGTKVTVSS | low polyreactivity
26 | QVQLVESGGGLVQAGGSLRLSCAPSGFTFRYYAMAWYRQAPGKEREFVAAISWSGGSTYYADSVKGRFTISRDNAKNTVYLQMNSLKPEDTAVYYCAAYYPLWGWGYDYWGQGTQVTVSS | high polyreactivity
27 | QVQLVESGGGLVQAGGSLRLSCDASGSIFDHNSMGWYRQAPGKERELVAAISSNGVRTYYADSVKGRFTISRDNAKNTVYLQMNSLKTEDTAVYYCNAQRFVGLNVYGYDYWGQGTQVTVSS | high polyreactivity
28 | QVQLVESGGGLVQAGGSLRLSCAASGYIFLGNAMGWYRQAPGKERELVAAISRSGGSTYYADSVKGRFTISRDNAQNTVYLQMNSLKPEDTAVYYCNRDRQKIGYTYKYDYWGQGTQVTVSS | high polyreactivity
29 | QVQLVESGGGLVQGGGSLRLSCAASGSTFGRYAMGWYRQAPGKEREFVAGITGRGGSTYYADSVKGRFTISRDNAKNTVYLQMNSLKPQDTAVYYCAAGYRVGYLRAGDYWGQGTQVTVSS | high polyreactivity
30 | QVQLVESGGGLVQAGGSLRLSCAASGRTFSGYTMGWYRQAPGKERELVAGISRSGGRTYYADSVKGRFTISRDNAKKTVYLQMNSLKPEDTAVYYCATPYRRLNTWIYDYWGQGTQVTVSS | high polyreactivity
31 | QEQLQESGGGLEQPGGSLRLSCAASGSISGSSTMGWYRQAQGKERELVASIAVGANTNYADSAKGRFTISRDNAKNPVYLQMNSLKPEDTAVYYCAVDYYIYYFHYWGQATQVTVSS | high polyreactivity
32 | QVQLVESGGGLVQAGGSLRLSCAASGLIFGRNAMGWYRQAPGKERELVAAISWSGGSTYYADSVKGRFTISRDNAKNTVYLEMKSLKPEDTAVYYCYRYRYYGSEDDYWGQCTQVTVSS | high polyreactivity
33 | QVQLVESGGGLVQAGGSLRLSCAASGFTFSYYAMGWYRQAPGKERELVAAISSGGSTYYADSVKGRFTISRDNAKNTVYLQMNSLKPEDTAVYYCNVLNYSSRHYLFSYDYWGQGTQVTVSS | high polyreactivity
34 | QVQLVESGGGLVQAGGSLRLSCAASGLIFDYYPMGWYRTAPGKERELVAAISYSGGRTYYADSVKGRFTISRDKAKNTVYLQMNSLKPEDTAVYYCNKVVLQPVIVDHDYWGQGTQVTVSS | low polyreactivity
35 | QVQLVESGGGLVQAGGSLRLSCAASGSIFRINAMGWYRQAPGKERELVAAISWSGGSTYYADSVKGRFTISRDNAKNTVYVQMNSLKPEDTAVYYCAAVVSKSSFDYWGQGTQVTVSS | low polyreactivity
36 | QVQLVESGGGLVQAGGSLRLICAASGSIFRINAMGWYRQAPGKEMELVAAITGRVGSTYYADSVKGRFTISRDNAKNTVYLQMNSLKPEDTAVYYCAARAGSSRYTREYRYDYWGQGTQVTVSS | high polyreactivity
37 | QVQLVESGGGLVQAGGSLRLSCAASGRIFRTNAMGWYRQAPGKERELVASINSDGSTNYADSVKGRFTISRDNAKNTVYLQMNSLKPDDTAVYYCAAGYFWGRIKYYYWGQCTQVTVSS | high polyreactivity
38 | QVQLVESVGGLVQAGGSLRLSCAASGFIIVEYDMGWYRQAPGKEREFVAAINFSGGSTYYADSVKGRFTISRDNAKNTVYLQMNSLKPEDNAVYYCAADVVRYYYTYYYWGQGTHVTVSS | low polyreactivity
39 | QVQLVESGGGLVQAGGSLRLSCAASGSIFNPYAMGWYRQAPGKQRELVAAISYTGGRTYYADSVKGRFTISRDNAQNTVYLQMNSLKPEDTAVYYCIADYIYSFYWSFYEYDYWGQGTQVTVSS | high polyreactivity
40 | QVQLVESGGGLVQAGGSLRLSCAASGSTFPGYAMGWYRQAPGKERELVAAISKRGGSTYYADSVKGRFTISRDNAKNTVYLQMNSLKPEDTAVYYCATVSRKYSLDYWGQGTQVTVSS | high polyreactivity
41 | QVQLVESGGGLVQAGGSLRLSCAASGFNFSKYAMGWYRQAPGKERELVARINYNGGSTYYADSVKGRFTISRDNAKNTVYLQMNSLKPEDTAVYYCALVWRFSTRYYYWGQGTQVTVSS | high polyreactivity
